Measured values taken from patent publication US20060270591A1, “Androgen receptor coregulators” (priority 2002, published 2006).
Blank lines part the entries; values can stand above or below the molecule they belong to.

Key:
GR = target: T1, GR (Homo sapiens, UniProt P04150); test: GR transactivation reporter gene assay (Example 2); type: cell-based; parameters: expressed in transfected cells; host or cells: PC-3
T1 sequence (P04150 1-777): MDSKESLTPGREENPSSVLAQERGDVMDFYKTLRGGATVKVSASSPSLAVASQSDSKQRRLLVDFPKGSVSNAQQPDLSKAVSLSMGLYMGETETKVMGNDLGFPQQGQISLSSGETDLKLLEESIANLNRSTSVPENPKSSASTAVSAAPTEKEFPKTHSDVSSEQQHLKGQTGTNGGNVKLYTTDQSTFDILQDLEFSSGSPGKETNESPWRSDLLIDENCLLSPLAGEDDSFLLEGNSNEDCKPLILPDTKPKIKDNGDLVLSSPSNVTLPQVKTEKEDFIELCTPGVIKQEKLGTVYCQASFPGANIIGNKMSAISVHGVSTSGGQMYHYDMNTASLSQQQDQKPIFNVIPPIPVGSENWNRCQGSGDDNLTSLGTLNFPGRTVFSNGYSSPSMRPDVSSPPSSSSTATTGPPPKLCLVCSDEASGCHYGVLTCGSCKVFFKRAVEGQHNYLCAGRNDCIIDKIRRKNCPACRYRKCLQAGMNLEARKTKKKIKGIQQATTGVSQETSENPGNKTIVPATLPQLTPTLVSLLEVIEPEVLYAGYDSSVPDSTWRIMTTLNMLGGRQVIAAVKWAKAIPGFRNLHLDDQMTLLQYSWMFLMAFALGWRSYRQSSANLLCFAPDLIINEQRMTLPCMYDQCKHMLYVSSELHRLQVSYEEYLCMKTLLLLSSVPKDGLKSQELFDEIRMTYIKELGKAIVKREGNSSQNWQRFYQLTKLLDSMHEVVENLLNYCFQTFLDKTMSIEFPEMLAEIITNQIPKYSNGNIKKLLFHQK
Method: 12. […] PC-3 (A) or DU145 (B) cells were transfected with MMTV-CAT (2.5 μg), steroid receptor expression plasmid (AR, PR, or GR; 1.0 μg for PC-3 and 0.75 μg for DU145), and pSG5-C′-ARA54 (C′) or pSG5-mt-ARA54 (mt) (8.0 μg for PC-3 and 6.75 μg for DU145), with (for DU145) or without (for PC-3) pSG5-fl-ARA54 (2.25 μg). The total amount of DNA was adjusted to 12.5-13.25 μg with pSG5 for each transfection. […] The CAT activity is presented relative to that of vector alone with cognate ligand in each panel (black bars; set as 100%). Values represent the mean±SD of at least three determinations.
394. The human prostate cancer cell lines, LNCaP, PC-3, and DU145, were maintained in Dulbecco's minimum essential medium (DMEM) containing 5% fetal calf serum (FCS). Transfections using the calcium phosphate precipitation method and chloramphenicol acetyltransferase (CAT) and luciferase (Luc) assays were performed as previously described (Miyamoto et al. (1998) Proc. Natl. Acad. Sci. U.S.A. 95, 7379-7384; Yeh et al. (1999) Endocrine 11, 195-202; Miyamoto et al. (1998) Proc. Natl. Acad. Sci. U.S.A. 95, 11083-11088). Briefly, 1-4×10^5 cells were plated on 35-mm or 60-mm dishes 24 h before adding the precipitation mix containing a CAT or Luc reporter gene and a β-galactosidase expression plasmid (pCMV-β-gal) as an internal control for normalization of transfection efficiency. The medium was changed to phenol-red-free DMEM with 5% charcoal-stripped FCS 1 h before transfection. In each experiment, the total amount of transfected DNA per dish was maintained as a constant by addition of empty expression vector (pSG5 or pVP16, as appropriate). […] The cells were then harvested and whole cell extracts were used for CAT or Luc assay. The CAT activity was quantitated with a PhosphorImager (Molecular Dynamics). The Luc assay was determined using a Dual-Luciferase Reporter Assay System (Promega) and luminometer.

PR = target: T2, PR (Homo sapiens, UniProt P06401); settings: previous studies; cited from earlier work
T2 construct: expressed in transfected cells; host or cells: DU145, PC-3
T2 sequence (P06401 1-933): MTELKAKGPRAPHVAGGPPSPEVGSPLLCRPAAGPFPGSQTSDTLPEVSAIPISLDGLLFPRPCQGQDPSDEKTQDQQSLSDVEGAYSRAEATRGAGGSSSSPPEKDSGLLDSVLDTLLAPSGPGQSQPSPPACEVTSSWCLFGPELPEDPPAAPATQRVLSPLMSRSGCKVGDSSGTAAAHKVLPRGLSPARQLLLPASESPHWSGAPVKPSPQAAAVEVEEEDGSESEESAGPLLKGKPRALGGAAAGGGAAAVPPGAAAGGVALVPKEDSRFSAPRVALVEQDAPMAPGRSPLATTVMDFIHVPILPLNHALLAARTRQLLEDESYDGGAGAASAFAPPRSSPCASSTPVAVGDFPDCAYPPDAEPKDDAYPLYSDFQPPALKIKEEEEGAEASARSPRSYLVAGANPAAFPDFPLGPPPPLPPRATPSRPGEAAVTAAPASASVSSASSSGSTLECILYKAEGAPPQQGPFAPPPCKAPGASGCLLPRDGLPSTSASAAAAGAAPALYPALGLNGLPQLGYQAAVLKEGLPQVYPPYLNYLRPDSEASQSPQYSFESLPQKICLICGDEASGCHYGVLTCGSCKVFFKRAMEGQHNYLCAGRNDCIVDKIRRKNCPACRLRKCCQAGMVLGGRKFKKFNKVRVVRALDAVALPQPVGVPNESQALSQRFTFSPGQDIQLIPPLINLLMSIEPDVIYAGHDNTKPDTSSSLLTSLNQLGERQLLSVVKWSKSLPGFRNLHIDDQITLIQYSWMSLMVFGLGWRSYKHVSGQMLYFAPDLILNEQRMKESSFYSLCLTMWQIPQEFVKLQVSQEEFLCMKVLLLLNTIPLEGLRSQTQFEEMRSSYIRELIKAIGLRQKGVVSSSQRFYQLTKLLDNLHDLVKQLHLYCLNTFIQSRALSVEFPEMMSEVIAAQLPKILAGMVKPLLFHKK

effect on fl-ARA54-induced GR transactivation (GR; DU145 cells): little effect
effect on GR transactivation (GR; PC-3 cell line): only marginally repressed
B1: C′-ARA54: C-terminal region (amino acids 361-474) of ARA54 (protein)
chain: RNEYLQADEANKRLLDQRYGKRVIQKALEEMESKEWLEKNSKSCPCCGTPIEKLDGCNKMTCTGCMQYFCWICMGSLSRANPYKHFNDPGSPCFNRLFYAVDVDDDIWEDEVED
modifications: Homo sapien
notes: C-terminal region (amino acids 361-474) of ARA54

induction of GR transcription activity (GR; DU145 cells, cotransfected with GR): 1.6 fold
B2: ARA54: 54 kDa protein that interacts with AR in an androgen-dependent manner; AR coactivator (protein)
chain: MSSEDREAQEDELLALASIYDGDEFRKAESVQGGETRIYLDLPQNFKIFVSGNSNECLQNSGFEYTICFLPPLVLNFELPPDYPSSSPPSFTLSGKWLSPTQLSALCKHLDNLWEEHRGSVVLFAWMQFLKEETLAYLNIVSPFELKIGSQKKVQRRTAQASPNTELDFGGAAGSDVDQEEIVDERAVQDVESLSNLIQEILDFDQAQQIKCFNSKLFLCSICFCEKLGSECMYFLECRHVYCKACLKDYFEIQIRDGQVQCLNCPEPKCPSVATPGQVKELVEAELFARYDRLLLQSSLDLMADVVYCPRPCCQLPVMQEPGCTMGICSSCNFAFCTLCRLTYHGVSPCKVTAEKLMDLRNEYLQADEANKRLLDQRYGKRVIQKALEEMESKEWLEKNSKSCPCCGTPIEKLDGCNKMTCTGCMQYFCWICMGSLSRANPYKHFNDPGSPCFNRLFYAVDVDDDIWEDEVED
enhancement of the transcription activity of PR (PR): up to 4 fold
